Source: patent US20180371066A1 (C2N DIAGNOSTICS, published 2018)

Tests used:
human tau [1] = target: T1, human tau (human, UniProt P10636 2-60); experiment: competition ELISA on plate-coated human tau against biotinylated HJ8.5; IC50 normalised to chimeric HJ8.5; column C2N Run 1
T1 construct: also called soluble human tau; human tau protein

[2] = target: T2, recombinant human Tau-412 protein (human, UniProt P10636-7 1-412); experiment: SPR Biacore T200, Protein A capture, mean of the VH1/VK2 runs
T2 construct: Analyte of the SPR study; also called human tau (1N4R, 412 amino acids)
Protocol: (§1) Kinetic data was obtained at a flow rate of 40 μL/min to minimize any potential mass transfer effects. Two repeats of the blank (no antigen) and the 2.5 nM concentration of the analyte were programmed into the kinetic run in order to check the stability of both the surface and analyte over the kinetic cycles. For the initial kinetic runs, 2-fold dilutions of Tau-412 from 40 nM to 0.156 nM were run. For kinetic analysis and on subsequent runs, an analyte range of 20 nM to 0.625 nM was selected. This range covered multiple analyte concentrations both above and below the reported KD.
(§2) The association phase was monitored for 500 seconds to allow some of the higher concentrations of analyte to reach steady state. In order to observe a sufficient signal decrease (>10%) during the dissociation phase of the kinetic cycle, dissociation was measured for 1200 seconds. As discussed in Section 5, the Fcs were allowed to stabilize for 600 seconds after each regeneration step. The signal from the reference channel Fc1 was subtracted from that of Fc2, Fc3 and Fc4.
(§3) The kinetic parameters for the interaction of Tau-412 with the 7 mAbs as measured using the Protein A capture system on the Biacore T200 are shown in Table F-2. To correct for differences in the capture level of the antibody between each binding cycle, a local Rₘₐₓ parameter was used in the 1-to-1 binding model. Kinetic analysis was performed in three independent runs using fresh preparations of Tau-412 and antibody. Run 1 and runs 2+3 used different vials of the antigen Tau-412; therefore the reported errors associated with the mean response probably represent variation in preparation of the analyte and differences in assay set-up and run. From run 1 to runs 2+3, the amount of antibody injected was adjusted to try to get closer to the target 300 RU capture levels.

[3] = target: T2, recombinant human Tau-412 protein; experiment: SPR Biacore T200, mAb captured on Protein A, Tau-412 analyte, 1-to-1 model, chip A11/3
Protocol: as §1, §2, §3

human tau [4] = target: T1, human tau; experiment: competition ELISA on plate-coated human tau against biotinylated HJ8.5; IC50 normalised to chimeric HJ8.5; column External
PEP_2875812 = target: T3, PEP_2875812; experiment: peptide array of 15-mers of human tau probed with the antibody; label LIN
T3 peptide: GLGDRKDQGGYTMHQ

PEP_2875816 = target: T4, PEP_2875816; experiment: as above
T4 peptide: GDRKDQGGYTMHQDQ

PEP_2875824 = target: T5, PEP_2875824; experiment: as above
T5 peptide: DQGGYTMHQDQEGDT

PEP_2875826 = target: T6, PEP_2875826; experiment: as above
T6 peptide: QGGYTMHQDQEGDTD

PEP_2875810 = target: T7, PEP_2875810; experiment: as above
T7 peptide: YGLGDRKDQGGYTMH

PEP_2875806 = target: T8, PEP_2875806; experiment: as above
T8 peptide: GTYGLGDRKDQGGYT

PEP_2875804 = target: T9, PEP_2875804; experiment: as above
T9 peptide: AGTYGLGDRKDQGGY

PEP_2875818 = target: T10, PEP_2875818; experiment: as above
T10 peptide: DRKDQGGYTMHQDQE

PEP_2875808 = target: T11, PEP_2875808; experiment: as above
T11 peptide: TYGLGDRKDQGGYTM

PEP_2875822 = target: T12, PEP_2875822; experiment: as above
T12 peptide: KDQGGYTMHQDQEGD

PEP_2875820 = target: T13, PEP_2875820; experiment: as above
T13 peptide: RKDQGGYTMHQDQEG

PEP_2875814 = target: T14, PEP_2875814; experiment: as above
T14 peptide: LGDRKDQGGYTMHQD

human tau [5] = target: T1, human tau; experiment: competition ELISA on plate-coated human tau against biotinylated HJ8.5; IC50 normalised to chimeric HJ8.5; column C2N Run 2
[6] = target: T2, recombinant human Tau-412 protein; experiment: SPR Biacore T200, mAb captured on Protein A, Tau-412 analyte, 1-to-1 model, chip A11/1
Protocol: as §1, §2, §3

rhesus monkey tau = target: T15, rhesus monkey tau (rhesus monkey, UniProt P57786 2-60); experiment: direct ELISA on 96-well plates coated with tau at varied concentration; OD 650nm
T15 construct: also called rhesus tau
T15 sequence: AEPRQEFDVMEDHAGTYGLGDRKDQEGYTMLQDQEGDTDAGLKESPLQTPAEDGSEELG
Protocol: FIG. 10 illustrates the binding results for different anti human tau antibodies to either human or rhesus monkey tau. Murine anti human tau antibodies HJ8.5 and HJ8.7 alongside humanized variant VH1/VK2 (also referred to as C₂N-8E12) were tested. […] In order to determine whether these amino acid difference between the two species of tau, impacts the ability of antibodies HJ8.5/C₂N-8E12 to bind the following experiment was performed. Binding of C₂N-8E12, HJ8.5 (murine precursor of C₂N-8E12), and HJ8.7 (murine anti-human tau antibody that binds to an epitope of tau where the human and rhesus amino acid sequence is 100% conserved) to human and rhesus tau by coating 96 well ELISA plates with either human or rhesus tau at various concentrations was measured. […] As expected, HJ8.7 binds to both human and rhesus tau.

T1 sequence (P10636 2-60 limits assumed): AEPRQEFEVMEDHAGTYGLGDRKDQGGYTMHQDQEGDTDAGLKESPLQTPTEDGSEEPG
T2 sequence (P10636 other isoform, or with tags, fused parts or gaps limits assumed): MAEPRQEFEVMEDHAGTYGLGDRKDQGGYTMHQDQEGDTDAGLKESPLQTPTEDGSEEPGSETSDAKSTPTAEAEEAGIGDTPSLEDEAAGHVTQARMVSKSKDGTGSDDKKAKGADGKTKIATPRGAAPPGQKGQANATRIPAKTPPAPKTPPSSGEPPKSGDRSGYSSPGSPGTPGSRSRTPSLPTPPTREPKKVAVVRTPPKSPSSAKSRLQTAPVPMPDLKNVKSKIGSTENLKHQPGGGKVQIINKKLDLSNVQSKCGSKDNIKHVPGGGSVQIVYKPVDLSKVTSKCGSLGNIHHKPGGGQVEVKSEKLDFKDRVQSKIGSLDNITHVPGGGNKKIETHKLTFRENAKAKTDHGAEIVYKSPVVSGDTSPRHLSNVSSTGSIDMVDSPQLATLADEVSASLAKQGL

B1: VH1/VK2 humanized anti-tau antibody (C2N-8E12) (antibody, human IgG4 S228P, kappa, V domains shown)
VH: EVKVVESGGGLVQPGGSMKLSCVVSGFTFSNYWVNWVRQAPGKGLEWVAQIRLKSDNYATHYEESVKGRFTISRDDSKSSVYLQMNNLRAEDSGIYYCTNWEDYWGQGTTVTVSS
VL: DIVLTQSPDSLAVSLGERATISCRASQSVSTSRYSYIHWYQQKPGQPPKLLIKYASNLESGVPSRFSGSGSGTDFTLNIHPLEPEDFATYYCHHSWEIPLTFGQGTKLEIKR
notes: Humanized recombinant IgG4 with S241P hinge mutation, human kappa light chain; also called C2N-8EI2
For B1, the “IC50 (Relative to Chimera)” value (human tau [1]) was 1.34 relative to Chimera, the Kd [2] was 2.06 nM and the koff [2] was 0.000621 s⁻¹. For the same binder, the kon [2] was 302000 M⁻¹ s⁻¹, the Kd [3] was 1.95 nM and the koff [3] was 0.000632 s⁻¹. The kon [3] was 325000 M⁻¹ s⁻¹, the “IC50 (Relative to Chimera)” value (human tau [4]) was 0.78 relative to Chimera and the “Binding Signal” value (PEP_2875812) was 2730. For the same binder, the “Binding Signal” value (PEP_2875816) was 2700, the “Binding Signal” value (PEP_2875824) was 2650 and the “Binding Signal” value (PEP_2875826) was 789. The “Binding Signal” value (PEP_2875810) was 2670, the “Binding Signal” value (PEP_2875806) was 1710 and the “Binding Signal” value (PEP_2875804) was 1290. The “Binding Signal” value (PEP_2875818) was 2790, the “Binding Signal” value (PEP_2875808) was 2590 and the “Binding Signal” value (PEP_2875822) was 2680. The “Binding Signal” value (PEP_2875820) was 2780, the “Binding Signal” value (PEP_2875814) was 2750 and the “IC50 (Relative to Chimera)” value (human tau [5]) was 0.91 relative to Chimera. For the same binder, the Kd [6] was 2.18 nM, the koff [6] was 0.000611 s⁻¹ and the kon [6] was 280000 M⁻¹ s⁻¹. B1: no binding (rhesus monkey tau).
